The text below walks through data of the RNAGym collection of RNA variant scans (doi:10.1093/nar/gkz1192).

B1: CPEB3 Ribozyme (parent)
chain: UAACAGGGGGCCACAGCAGAAGCGUUCACGUCGCAGCCCCUGUCAGAUUCUGGUGAAUCUGCGAAUUCUGCUGUAUAUCUC

The data set covers variants of B1. Put plainly: self-cleavage, relative activity (ratio to wild type); higher = more cleavage; in vitro, sequencing. In a few lines:
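Libraries of CPEB3 self-cleaving ribozyme mutants came from rounds of error-prone PCR and carried barcodes, which DNA sequencing matched to variants. In vitro transcription used T7 RNA polymerase at 37°C for 5 hours, with a further 15 min in DNase I before EDTA stopped the reaction; the ribozymes cleaved during both steps. The RNA was reverse transcribed with template switching and sequenced on Illumina. Relative activity is the cleaved/total read fraction of a variant divided by that of the unmutated ribozyme, averaged over three batches with at least 5 reads.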
Take C23A C62U: the self-cleavage stood at 0.21.
The result for G22C U41C reads 0.1; that for G22C U41A, 0.29.
On to C23G U67A, for which the self-cleavage came out at 0.25.
In the case of C23G U67C, the self-cleavage is 0.12.
With C23A U69C the figure was 0.12; with G22U U41C, 0.27.
G22U U41A: the self-cleavage was 0.17.
Take C23A U60A: the self-cleavage worked out at 0.19.
As to C23A U60C, the self-cleavage stood at 0.33.
As for C23A U60G, the self-cleavage was 0.06.
With C23A U76C the figure was 0.21; with G22C C29U, 0.1.
The result for C23G A75U reads 0.07.
Turning to C23G A75G, the self-cleavage was determined as 0.14.
G22C: the self-cleavage came out at 0.26.
As for G22U, the self-cleavage worked out at 0.27.
G22C A64G: the self-cleavage was found to be 0.24.
With G22C A64U, the self-cleavage came out at 0.16.
In the case of C23A U66A, the self-cleavage was 0.1.
As to C23U C29U, the self-cleavage came out at 0.21.
Take C23A G52U: the self-cleavage worked out at 0.15.
With G24A G53A, the self-cleavage was determined as 0.53.
As to G24A U66A, the self-cleavage worked out at 0.3.
With G24A U66C the figure was 0.39; with G22A U76C, 0.25.
With C23G U54G, the self-cleavage is 0.26.
Take C23G U54A: the self-cleavage came out at 0.26.
In the case of C23G U54C, the self-cleavage came to 0.28.
With C23G U31C the figure was 0.41; with G24A A35G, 0.38.
With G24A A35U, the self-cleavage came out at 0.17.
In the case of C23G U48C, the self-cleavage is 0.29.
The result for C23G A47G reads 0.28; that for C23U U41C, 0.27; that for C23U U41A, 0.12.
The result for C23U C38A reads 0.16; that for C23U C38U, 0.13; that for C23A A64G, 0.53.
Consider G24A C40U, for which the self-cleavage was found to be 0.1.
C23U A57G: the self-cleavage is 0.31.
In the case of C23U A57U, the self-cleavage is 0.19.
The result for C23U G30A reads 0.12; that for G22C A65G, 0.32.
As for G24A C71G, the self-cleavage turned out to be 0.09.
In the case of G24A C71U, the self-cleavage came out at 0.36.
On to C23U U48C, for which the self-cleavage is 0.14.
Turning to C23U U51A, the self-cleavage was found to be 0.2.
As for C23U U51C, the self-cleavage was 0.07.
As for G22A U69G, the self-cleavage was determined as 0.06.
Regarding C23U C27U, the self-cleavage was 0.31.
C23U U80G: the self-cleavage worked out at 0.26.
In the case of C23U U80A, the self-cleavage turned out to be 0.28.
Turning to C23U U76C, the self-cleavage worked out at 0.4.
The result for C23U U76A reads 0.22; that for G24A G61A, 0.19; that for G24A G61C, 0.09.
With G24A U67C the figure was 0.22.
Take G24A U67A: the self-cleavage amounted to 0.18.
Consider C23G U74A, for which the self-cleavage amounted to 0.28.
In the case of C23G U74C, the self-cleavage was determined as 0.41.
G24A C81A: the self-cleavage turned out to be 0.16.
Take G22U A64G: the self-cleavage was determined as 0.36.
C23U C37U: the self-cleavage was determined as 0.2.
Turning to G24A G36U, the self-cleavage was found to be 0.1.
For the variant G24A G36A, the self-cleavage came to 0.15.
Take G22C G55U: the self-cleavage amounted to 0.22.
As for C23U U26C, the self-cleavage turned out to be 0.2.
As to C23U U26A, the self-cleavage stood at 0.24.
Turning to C23U U78C, the self-cleavage came out at 0.27.
With G24A A77U the figure was 0.46.
As to G24A A77G, the self-cleavage amounted to 0.23.
The result for G22C G52C reads 0.2.
G24A G30A: the self-cleavage came to 0.24.
For the variant G24A C32A, the self-cleavage turned out to be 0.29.
C23G U26A: the self-cleavage came out at 0.1.
With C23G U26C, the self-cleavage was found to be 0.25.
The result for G24A U25C reads 0.25; that for G24A U25A, 0.26; that for G24A A47U, 0.21.
On to G24A A47G, for which the self-cleavage stood at 0.27.
With C23G A35U the figure was 0.19.
In the case of C23A U49A, the self-cleavage was found to be 0.25.
For C23U G55A, the self-cleavage amounted to 0.24.
As for C23U U60A, the self-cleavage is 0.26.
As to C23U U60C, the self-cleavage turned out to be 0.15.
With C23A U72A, the self-cleavage is 0.08.
As to C23A U72C, the self-cleavage turned out to be 0.41.
On to C23A U58A, for which the self-cleavage is 0.18.
As for C23A U58C, the self-cleavage worked out at 0.56.
With G22C U80G, the self-cleavage turned out to be 0.27.
As for G24A, the self-cleavage is 0.27.
The result for C23A U54C reads 0.18; that for G24A C27U, 0.3; that for G24A C27A, 0.18.
Turning to G22C A35U, the self-cleavage was 0.12.
On to G22C A35G, for which the self-cleavage was found to be 0.32.
Consider C23A C39U, for which the self-cleavage was determined as 0.23.
With G22U U60C, the self-cleavage was 0.07.
On to G22U U60A, for which the self-cleavage is 0.17.
Turning to C23G A56U, the self-cleavage is 0.4.
For C23G A56G, the self-cleavage is 0.23.
Consider C23U U49C, for which the self-cleavage stood at 0.28.
In the case of C23U U49G, the self-cleavage was 0.41.
With C23A U25C, the self-cleavage was 0.36.
For C23A U25A, the self-cleavage was found to be 0.27.
As to G24A U43A, the self-cleavage stood at 0.17.
For the variant G24A U43C, the self-cleavage stood at 0.32.
Regarding G22U U72A, the self-cleavage was 0.15.
The result for G22U U72C reads 0.3; that for C23U A75G, 0.27.
Consider C23U U72A, for which the self-cleavage was found to be 0.22.
On to C23U U72G, for which the self-cleavage was 0.1.
The result for C23U U72C reads 0.48.
Take C23A: the self-cleavage is 0.3.
Consider C23U, for which the self-cleavage came to 0.35.
Regarding C23G, the self-cleavage was found to be 0.26.
With C23U A35U the figure was 0.16; with C23U A35G, 0.95.
On to G22U A75U, for which the self-cleavage was 0.26.
As to G22U A75C, the self-cleavage was determined as 0.23.
As for G22U A75G, the self-cleavage worked out at 0.39.
As for C23U G46A, the self-cleavage came out at 0.06.
On to C23A G24A, for which the self-cleavage was determined as 0.13.
Take G22U A56G: the self-cleavage is 0.2.
Consider C23A U48C, for which the self-cleavage was 0.16.
As to C23U C34U, the self-cleavage is 0.36.
The result for G22U U76A reads 0.33.
With G24A A75G, the self-cleavage turned out to be 0.32.
On to G24A A75U, for which the self-cleavage was found to be 0.25.
Take C23U G24A: the self-cleavage was 0.22.
As to G22U G46A, the self-cleavage amounted to 0.17.
C23A U43A: the self-cleavage is 0.28.
Turning to C23A U43C, the self-cleavage worked out at 0.23.
Turning to C23A C79A, the self-cleavage came out at 0.26.
Consider G24A C68A, for which the self-cleavage worked out at 0.07.
Take C23U C32U: the self-cleavage came to 0.14.
In the case of C23G A45G, the self-cleavage was determined as 0.21.
On to C23A A57G, for which the self-cleavage is 0.26.
For C23A A56G, the self-cleavage amounted to 0.2.
Regarding G24A U48C, the self-cleavage was determined as 0.22.
On to C23U G61A, for which the self-cleavage amounted to 0.25.
Turning to C23U G61C, the self-cleavage turned out to be 0.11.
With C23G U49C the figure was 0.16; with G24A A45U, 0.25; with G24A A45C, 0.36.
In the case of G24A A45G, the self-cleavage came to 0.24.
The result for G24A C37A reads 0.17; that for G24A G63A, 0.37.
With G24A G63C the figure was 0.16; with C23A A47G, 0.41.
Consider C23A A47U, for which the self-cleavage amounted to 0.47.
As to C23U A64G, the self-cleavage came to 0.26.
Turning to C23U A64C, the self-cleavage is 0.09.
In the case of C23U A64U, the self-cleavage stood at 0.16.
As to G22C C37G, the self-cleavage amounted to 0.09.
Turning to C23U A45G, the self-cleavage came to 0.25.
C23U A45U: the self-cleavage amounted to 0.27.
On to C23U A45C, for which the self-cleavage worked out at 0.45.
Regarding G22U U66G, the self-cleavage is 0.17.
As for G22U U66C, the self-cleavage was found to be 0.52.
With G24A U54G the figure was 0.15.
Consider G24A U54C, for which the self-cleavage was found to be 0.27.
G24A U54A: the self-cleavage was found to be 0.25.
With C23U A56G the figure was 0.31; with C23U A56U, 0.15; with G22C U25C, 0.45.
